Assays:
[1] = biological target: F137L/E363G variant of S. pyogenes enolase (S. pyogenes) (UniProt P69949); test: AUC; sedimentation velocity; 22.7 µM enolase in TME with varying NaClO4; octamer to monomers
[2] = biological target: F137L/E363G variant of S. pyogenes enolase (S. pyogenes) (UniProt P69949); test: AUC; sedimentation velocity, 15°C; 2.7 µM enolase incubated 18 h at 15°C in TME with NaClO4 (up to 0.4 M); octamer to monomers
[3] = biological target: F137L/E363G variant of S. pyogenes enolase (S. pyogenes) (UniProt P69949); test: AUC; sedimentation velocity, 20°C; pH 9.0, 50 mM Tris or glycine with 1 mM Mg(OAc)2 and 0.1 mM EDTA; octamer to monomers
[4] = biological target: F137L/E363G variant of S. pyogenes enolase (S. pyogenes) (UniProt P69949); test: AUC; sedimentation velocity; 19.4 µM enolase incubated in 0.2 M NaClO4, then dialysed 24 hours against buffer (reassociation)
[5] = biological target: F137L/E363G variant of S. pyogenes enolase (S. pyogenes) (UniProt P69949); test: AUC; sedimentation velocity, 20°C; pH 7.4, 50 mM Tris with 1 mM Mg(OAc)2 and 0.1 mM EDTA
[6] = biological target: F137L/E363G variant of S. pyogenes enolase (S. pyogenes) (UniProt P69949); test: AUC; sedimentation velocity; 19.4 µM enolase after incubation in 0.2 M NaClO4; octamer to monomers

F137L/E363G variant of S. pyogenes enolase (from UniProt P69949 1-435) (enzyme)
NaClO4 concentration at 50% dissociation [1]: 0.12 M | NaClO4 concentration at 50% dissociation [2]: 0.06 M | percent monomeric [3]: 54% | percent octameric [3]: 39% | percent octameric after dialysis against buffer [4]: 77% | percent octameric [5]: 88% | stoichiometry N [5]: 8 | percent octameric in 0.2 M NaClO4 [6]: 21%
